T1: human CD154, soluble antigen (human, UniProt P29965 116-261, limits assumed)
T1 construct: KinExA uses 'soluble antigen'; also called CD40 ligand; CD40L
T1 sequence (looked up): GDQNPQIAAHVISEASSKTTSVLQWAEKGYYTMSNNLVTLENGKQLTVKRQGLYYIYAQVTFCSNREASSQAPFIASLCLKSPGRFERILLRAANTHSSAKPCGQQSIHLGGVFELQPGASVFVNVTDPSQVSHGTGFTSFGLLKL


Tests used:
[1] = molecular target: T1, human CD154, soluble antigen; experiment: KinExA solution-phase equilibrium, Fab with soluble antigen
[2] = molecular target: T1, human CD154, soluble antigen; experiment: ELISA-based competitive binding assay; unlabeled Fab against biotin-labeled 5c8 Fab competitor

Binder	Kd [1] [pM]	ELISA fold-improvement over wildtype [2] [fold]
5c8 Fab Mutant #26 (heavy T30H/S54N; light S26D/Q27E/T33W) (Fab, V domains shown) VH: QVQLVQSGAEVVKPGASVKLSCKASGYIFHSYYMYWVKQAPGQGLEWIGEINPNNGDTNFNEKFKSKATLTVDKSASTAYMELSSLRSEDTAVYYCTRSDGRNDMDSWGQGTLVTVSS VL: DIVLTQSPATLSVSPGERATISCRADERVSSSWYSYMHWYQQKPGQPPKLLIKYASNLESGVPARFSGSGSGTDFTLTISSVEPEDFATYYCQHSWEIPPTFGGGTKLEIK	63	
5c8 Fab Mutant #27 (heavy Y33W/S54N; light S26D/Q27E/T33W) (Fab, V domains shown) VH: QVQLVQSGAEVVKPGASVKLSCKASGYIFTSYWMYWVKQAPGQGLEWIGEINPNNGDTNFNEKFKSKATLTVDKSASTAYMELSSLRSEDTAVYYCTRSDGRNDMDSWGQGTLVTVSS VL: DIVLTQSPATLSVSPGERATISCRADERVSSSWYSYMHWYQQKPGQPPKLLIKYASNLESGVPARFSGSGSGTDFTLTISSVEPEDFATYYCQHSWEIPPTFGGGTKLEIK	52	
5c8 Fab Mutant #4 (heavy chain S54N) (Fab, V domains shown) VH: QVQLVQSGAEVVKPGASVKLSCKASGYIFTSYYMYWVKQAPGQGLEWIGEINPNNGDTNFNEKFKSKATLTVDKSASTAYMELSSLRSEDTAVYYCTRSDGRNDMDSWGQGTLVTVSS VL: DIVLTQSPATLSVSPGERATISCRASQRVSSSTYSYMHWYQQKPGQPPKLLIKYASNLESGVPARFSGSGSGTDFTLTISSVEPEDFATYYCQHSWEIPPTFGGGTKLEIK	298	2
5c8 Fab Mutant #5 (light chain T33W) (Fab, V domains shown) VH: QVQLVQSGAEVVKPGASVKLSCKASGYIFTSYYMYWVKQAPGQGLEWIGEINPSNGDTNFNEKFKSKATLTVDKSASTAYMELSSLRSEDTAVYYCTRSDGRNDMDSWGQGTLVTVSS VL: DIVLTQSPATLSVSPGERATISCRASQRVSSSWYSYMHWYQQKPGQPPKLLIKYASNLESGVPARFSGSGSGTDFTLTISSVEPEDFATYYCQHSWEIPPTFGGGTKLEIK	158	5
5c8 Fab Mutant #21 (heavy T30H/Y33W/S54N; light S26D/Q27E) (Fab, V domains shown) VH: QVQLVQSGAEVVKPGASVKLSCKASGYIFHSYWMYWVKQAPGQGLEWIGEINPNNGDTNFNEKFKSKATLTVDKSASTAYMELSSLRSEDTAVYYCTRSDGRNDMDSWGQGTLVTVSS VL: DIVLTQSPATLSVSPGERATISCRADERVSSSTYSYMHWYQQKPGQPPKLLIKYASNLESGVPARFSGSGSGTDFTLTISSVEPEDFATYYCQHSWEIPPTFGGGTKLEIK	101	
5c8 Fab Mutant #22 (heavy T30H/Y33W/S54N; light S26D/Q27E/T33W) (Fab, V domains shown) VH: QVQLVQSGAEVVKPGASVKLSCKASGYIFHSYWMYWVKQAPGQGLEWIGEINPNNGDTNFNEKFKSKATLTVDKSASTAYMELSSLRSEDTAVYYCTRSDGRNDMDSWGQGTLVTVSS VL: DIVLTQSPATLSVSPGERATISCRADERVSSSWYSYMHWYQQKPGQPPKLLIKYASNLESGVPARFSGSGSGTDFTLTISSVEPEDFATYYCQHSWEIPPTFGGGTKLEIK	55	
5c8 Fab Mutant #2 (heavy chain Y33W) (Fab, V domains shown) VH: QVQLVQSGAEVVKPGASVKLSCKASGYIFTSYWMYWVKQAPGQGLEWIGEINPSNGDTNFNEKFKSKATLTVDKSASTAYMELSSLRSEDTAVYYCTRSDGRNDMDSWGQGTLVTVSS VL: DIVLTQSPATLSVSPGERATISCRASQRVSSSTYSYMHWYQQKPGQPPKLLIKYASNLESGVPARFSGSGSGTDFTLTISSVEPEDFATYYCQHSWEIPPTFGGGTKLEIK	169	7
5c8 Fab Mutant #19 (heavy S54N; light S26D/Q27E) (Fab, V domains shown) VH: QVQLVQSGAEVVKPGASVKLSCKASGYIFTSYYMYWVKQAPGQGLEWIGEINPNNGDTNFNEKFKSKATLTVDKSASTAYMELSSLRSEDTAVYYCTRSDGRNDMDSWGQGTLVTVSS VL: DIVLTQSPATLSVSPGERATISCRADERVSSSTYSYMHWYQQKPGQPPKLLIKYASNLESGVPARFSGSGSGTDFTLTISSVEPEDFATYYCQHSWEIPPTFGGGTKLEIK	65	
5c8 Fab Mutant #28 (heavy Y33W/S54N; light S26D/Q27E) (Fab, V domains shown) VH: QVQLVQSGAEVVKPGASVKLSCKASGYIFTSYWMYWVKQAPGQGLEWIGEINPNNGDTNFNEKFKSKATLTVDKSASTAYMELSSLRSEDTAVYYCTRSDGRNDMDSWGQGTLVTVSS VL: DIVLTQSPATLSVSPGERATISCRADERVSSSTYSYMHWYQQKPGQPPKLLIKYASNLESGVPARFSGSGSGTDFTLTISSVEPEDFATYYCQHSWEIPPTFGGGTKLEIK	77	
5c8 Fab Mutant #13 (heavy chain N59L) (Fab, V domains shown, also called Asn59Leu) VH: QVQLVQSGAEVVKPGASVKLSCKASGYIFTSYYMYWVKQAPGQGLEWIGEINPSNGDTLFNEKFKSKATLTVDKSASTAYMELSSLRSEDTAVYYCTRSDGRNDMDSWGQGTLVTVSS VL: DIVLTQSPATLSVSPGERATISCRASQRVSSSTYSYMHWYQQKPGQPPKLLIKYASNLESGVPARFSGSGSGTDFTLTISSVEPEDFATYYCQHSWEIPPTFGGGTKLEIK		0.01

Second part, the binder after the results:

Kd [1] [pM]	ELISA fold-improvement over wildtype [2] [fold]	Binder
307	2.3	5c8 Fab Mutant #1 (heavy chain T30H) (Fab, V domains shown) VH: QVQLVQSGAEVVKPGASVKLSCKASGYIFHSYYMYWVKQAPGQGLEWIGEINPSNGDTNFNEKFKSKATLTVDKSASTAYMELSSLRSEDTAVYYCTRSDGRNDMDSWGQGTLVTVSS VL: DIVLTQSPATLSVSPGERATISCRASQRVSSSTYSYMHWYQQKPGQPPKLLIKYASNLESGVPARFSGSGSGTDFTLTISSVEPEDFATYYCQHSWEIPPTFGGGTKLEIK
	0.02	5c8 Fab Mutant #8 (light chain S31V) (Fab, V domains shown) VH: QVQLVQSGAEVVKPGASVKLSCKASGYIFTSYYMYWVKQAPGQGLEWIGEINPSNGDTNFNEKFKSKATLTVDKSASTAYMELSSLRSEDTAVYYCTRSDGRNDMDSWGQGTLVTVSS VL: DIVLTQSPATLSVSPGERATISCRASQRVSVSTYSYMHWYQQKPGQPPKLLIKYASNLESGVPARFSGSGSGTDFTLTISSVEPEDFATYYCQHSWEIPPTFGGGTKLEIK
420		5c8 Fab Mutant #3 (light chain Y36W) (Fab, V domains shown) VH: QVQLVQSGAEVVKPGASVKLSCKASGYIFTSYYMYWVKQAPGQGLEWIGEINPSNGDTNFNEKFKSKATLTVDKSASTAYMELSSLRSEDTAVYYCTRSDGRNDMDSWGQGTLVTVSS VL: DIVLTQSPATLSVSPGERATISCRASQRVSSSTYSWMHWYQQKPGQPPKLLIKYASNLESGVPARFSGSGSGTDFTLTISSVEPEDFATYYCQHSWEIPPTFGGGTKLEIK
81	6.3	5c8 Fab Mutant #7 (light chain Q27E) (Fab, V domains shown, also called Gln27Glu) VH: QVQLVQSGAEVVKPGASVKLSCKASGYIFTSYYMYWVKQAPGQGLEWIGEINPSNGDTNFNEKFKSKATLTVDKSASTAYMELSSLRSEDTAVYYCTRSDGRNDMDSWGQGTLVTVSS VL: DIVLTQSPATLSVSPGERATISCRASERVSSSTYSYMHWYQQKPGQPPKLLIKYASNLESGVPARFSGSGSGTDFTLTISSVEPEDFATYYCQHSWEIPPTFGGGTKLEIK
	0.22	5c8 Fab Mutant #9 (light chain T33D) (Fab, V domains shown) VH: QVQLVQSGAEVVKPGASVKLSCKASGYIFTSYYMYWVKQAPGQGLEWIGEINPSNGDTNFNEKFKSKATLTVDKSASTAYMELSSLRSEDTAVYYCTRSDGRNDMDSWGQGTLVTVSS VL: DIVLTQSPATLSVSPGERATISCRASQRVSSSDYSYMHWYQQKPGQPPKLLIKYASNLESGVPARFSGSGSGTDFTLTISSVEPEDFATYYCQHSWEIPPTFGGGTKLEIK
	0.05	5c8 Fab Mutant #11 (heavy chain Y33F) (Fab, V domains shown) VH: QVQLVQSGAEVVKPGASVKLSCKASGYIFTSYFMYWVKQAPGQGLEWIGEINPSNGDTNFNEKFKSKATLTVDKSASTAYMELSSLRSEDTAVYYCTRSDGRNDMDSWGQGTLVTVSS VL: DIVLTQSPATLSVSPGERATISCRASQRVSSSTYSYMHWYQQKPGQPPKLLIKYASNLESGVPARFSGSGSGTDFTLTISSVEPEDFATYYCQHSWEIPPTFGGGTKLEIK
44		5c8 Fab Mutant #20 (heavy S54N; light S26D/Q27E/T33W) (Fab, V domains shown) VH: QVQLVQSGAEVVKPGASVKLSCKASGYIFTSYYMYWVKQAPGQGLEWIGEINPNNGDTNFNEKFKSKATLTVDKSASTAYMELSSLRSEDTAVYYCTRSDGRNDMDSWGQGTLVTVSS VL: DIVLTQSPATLSVSPGERATISCRADERVSSSWYSYMHWYQQKPGQPPKLLIKYASNLESGVPARFSGSGSGTDFTLTISSVEPEDFATYYCQHSWEIPPTFGGGTKLEIK
	0.13	5c8 Fab Mutant #12 (heavy chain N59D) (Fab, V domains shown, also called Asn59Asp) VH: QVQLVQSGAEVVKPGASVKLSCKASGYIFTSYYMYWVKQAPGQGLEWIGEINPSNGDTDFNEKFKSKATLTVDKSASTAYMELSSLRSEDTAVYYCTRSDGRNDMDSWGQGTLVTVSS VL: DIVLTQSPATLSVSPGERATISCRASQRVSSSTYSYMHWYQQKPGQPPKLLIKYASNLESGVPARFSGSGSGTDFTLTISSVEPEDFATYYCQHSWEIPPTFGGGTKLEIK
	0.06	5c8 Fab Mutant #10 (light chain Y54E) (Fab, V domains shown, also called Tyr54Glu) VH: QVQLVQSGAEVVKPGASVKLSCKASGYIFTSYYMYWVKQAPGQGLEWIGEINPSNGDTNFNEKFKSKATLTVDKSASTAYMELSSLRSEDTAVYYCTRSDGRNDMDSWGQGTLVTVSS VL: DIVLTQSPATLSVSPGERATISCRASQRVSSSTYSYMHWYQQKPGQPPKLLIKEASNLESGVPARFSGSGSGTDFTLTISSVEPEDFATYYCQHSWEIPPTFGGGTKLEIK
142	2.6	5c8 Fab Mutant #6 (light chain S26D) (Fab, V domains shown, also called Ser26Asp) VH: QVQLVQSGAEVVKPGASVKLSCKASGYIFTSYYMYWVKQAPGQGLEWIGEINPSNGDTNFNEKFKSKATLTVDKSASTAYMELSSLRSEDTAVYYCTRSDGRNDMDSWGQGTLVTVSS VL: DIVLTQSPATLSVSPGERATISCRADQRVSSSTYSYMHWYQQKPGQPPKLLIKYASNLESGVPARFSGSGSGTDFTLTISSVEPEDFATYYCQHSWEIPPTFGGGTKLEIK
